The text below walks through data of patent US20140341881A1 (DERMADIS, published 2014).

Broadly, the % Inhibition is the percentage by which the read-out fell short of the control. A lower % Inhibition goes with a weak effect. Usually kon stands for a measure of how fast the partners come together. Higher therefore signals faster complex formation.

Experiment [1] has as its target T1, human kallikrein 13 (hK13) (human, UniProt Q9UKR3 26-277, limits assumed).
T1 sequence (looked up): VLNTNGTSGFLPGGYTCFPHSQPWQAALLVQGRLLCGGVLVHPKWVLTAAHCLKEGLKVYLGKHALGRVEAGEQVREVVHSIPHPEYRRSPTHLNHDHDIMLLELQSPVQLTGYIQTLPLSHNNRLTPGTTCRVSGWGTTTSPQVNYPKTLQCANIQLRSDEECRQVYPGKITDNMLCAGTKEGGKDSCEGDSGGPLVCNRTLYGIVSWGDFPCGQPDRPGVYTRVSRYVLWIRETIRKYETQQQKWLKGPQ
The experiment can be described thus: cell-based or functional assay.

Experiment [2] addresses thrombin. The experiment in a line: cell-based or functional assay.
The next experiment has as its target T2, human kallikrein 5 (hK5) (human, UniProt Q9Y337 67-293, limits assumed).
T2 sequence (looked up): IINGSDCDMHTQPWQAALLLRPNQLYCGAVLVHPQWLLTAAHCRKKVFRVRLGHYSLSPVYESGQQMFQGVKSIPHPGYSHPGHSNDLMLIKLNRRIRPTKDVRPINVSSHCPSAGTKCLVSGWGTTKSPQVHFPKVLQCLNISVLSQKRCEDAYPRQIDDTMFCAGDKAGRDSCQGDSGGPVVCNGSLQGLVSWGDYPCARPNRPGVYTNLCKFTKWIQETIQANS
The experiment can be described thus: cell-based or functional assay.

In experiment [3] the target is T3, human kallikrein 2 (hK2) (human, UniProt P20151 25-261). The experiment can be described thus: cell-based or functional assay.
In experiment [4] the target is T4, human chymotrypsin (Chtr) (human, UniProt P17538 19-263). The experiment in a line: cell-based or functional assay.
The target in a further experiment is T5, human kallikrein 8 (hK8) (human, UniProt O60259 33-260).
T5 sequence (looked up): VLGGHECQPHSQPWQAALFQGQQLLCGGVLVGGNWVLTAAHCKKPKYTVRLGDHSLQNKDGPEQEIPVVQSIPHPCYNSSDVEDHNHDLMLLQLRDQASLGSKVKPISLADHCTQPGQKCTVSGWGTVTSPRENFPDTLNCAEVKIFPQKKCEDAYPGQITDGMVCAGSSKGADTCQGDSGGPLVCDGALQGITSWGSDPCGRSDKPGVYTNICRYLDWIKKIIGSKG
The experiment in a line: cell-based or functional assay.

The next experiment has as its target human kallikrein 6 (hK6) (human, UniProt Q92876 22-244). The experiment in a line: cell-based or functional assay.
In experiment [5] the target is T6, prostate specific antigen (PSA, hK3) (human, UniProt P07288 25-261). The experiment in a line: cell-based or functional assay.
In experiment [6] the target is T3, human kallikrein 2 (hK2). The experiment in a line: cell-based or functional assay. The source holds these as a separate data set.
For experiment [7], the target named is T4, human chymotrypsin (Chtr). The experiment in a line: cell-based or functional assay. This is another data set of the same source.
The target in experiment [8] is T6, prostate specific antigen (PSA, hK3). The experiment in a line: cell-based or functional assay. The source holds these as a separate data set.
For a further experiment, the target named is human kallikrein hK1 (human, UniProt P06870 25-262). The experiment can be described thus: cell-based or functional assay.
For experiment [9], the target named is T7, urokinase plasminogen activator (uPA) (UniProt P00749 21-431, limits assumed). The experiment can be described thus: cell-based or functional assay.
The target of experiment [10] is thrombin. The experiment can be described thus: cell-based or functional assay. The source holds these as a separate data set.
Experiment [11] concerns the target T4, human chymotrypsin (Chtr). The experiment can be described thus: cell-based or functional assay. The source holds these as a separate data set.
Experiment [12] concerns the target T7, urokinase plasminogen activator (uPA). The experiment in a line: cell-based or functional assay. The source holds these as a separate data set.
The target in experiment [13] is T4, human chymotrypsin (Chtr). The experiment in a line: residual enzyme activity against [I]o/[E]o, fluorogenic substrate. How it is done:
(§1) The stoichiometry of inhibition (SI) values were determined for the inhibition of rACTWT and its variants with hK2 and different other enzymes. An initial test was made with a molar excess of rACT (100 fold) over hK2, PSA, hK1, chymotrypsin (Chtr), plasma kallikrein (PK), urokinase (uPA) and human neutrophile elastase (HNE) enzymes. The reaction was carried out for 30 min at 25° C. (90 min at 37° C. for PSA) in reaction buffer (50 mM Tris pH 7.5, 150 mM NaCl, 0,05% Triton X-100, 0.01% BSA) and residual enzyme activity was measured by adding fluorescent substrates (Z-Phe-Arg-AMC for hK1, hK2 and PK, Suc-Ala-Ala-Pro-Phe-AMC for Chtr, Z-Gly-Gly-Arg-AMC for uPA, MeOSuc-Ala-Ala-Pro-Val-AMC for HNE, and CFP-TFRSA-YFP (TFRSA SEQ ID NO:137) for PSA). Activity of enzyme in presence of inhibitors was compared to uninhibited reaction. For reactions where an inhibition was observed, SI was determined by incubating different concentrations of recombinant serpins. Using linear regression analysis of fractional activity (velocity of inhibited enzyme reaction/velocity of uninhibited enzyme reaction) versus the molar ratio of the inhibitor to enzyme ([Iₒ]/[Eₒ]), the stoichiometry of inhibition, corresponding to the abscissa intercept, was obtained.

In experiment [14] the target is T8, human neutrophil elastase (HNE) (human, UniProt P08246 30-247, limits assumed).
T8 sequence (looked up): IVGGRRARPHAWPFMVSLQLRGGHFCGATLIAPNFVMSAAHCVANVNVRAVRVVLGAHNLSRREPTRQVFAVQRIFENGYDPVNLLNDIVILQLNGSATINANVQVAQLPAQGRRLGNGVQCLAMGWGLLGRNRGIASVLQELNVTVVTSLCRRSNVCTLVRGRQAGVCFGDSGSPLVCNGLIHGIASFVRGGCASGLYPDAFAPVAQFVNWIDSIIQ
The experiment in a line: cell-based or functional assay.

Experiment [15] deals with T9, human plasma kallikrein (PK) (human, UniProt P03952 20-638). The experiment can be described thus: cell-based or functional assay.
Experiment [16] deals with T8, human neutrophil elastase (HNE). The experiment can be described thus: progress curve, pseudo-first order, fluorogenic substrate. How it is done: (§2) Under these conditions, a fixed amount of enzyme (2 nM) was mixed with different concentrations of inhibitor (0-800 nM) and an excess of substrate (10 μM). Each reaction was made in reaction buffer (50 mM Tris pH 7.5, 150 mM NaCl, 0,05% Triton X-100, 0.01% BSA) at 25° C. for 45 min and the rate of product formation was measured using a FLₓ800 fluorescence 96-well microplate reader (Biotek, USA). In this model, inhibition is considered to be irreversible over the course of reaction and the progress of enzyme activity is expressed by product formation (P), beginning at a rate (vz) and is inhibited over time (t) at a first-order rate (kobs), rate constant that is dependent only on inhibitor concentration.

Experiment [17] concerns the target T9, human plasma kallikrein (PK). The description is as above. On the procedure: as §2
In experiment [18] the target is T3, human kallikrein 2 (hK2). The experiment is described as above. How it is done: as §2
The target in experiment [19] is T8, human neutrophil elastase (HNE). The experiment can be described thus: residual enzyme activity against [I]o/[E]o, fluorogenic substrate. How it is done:
as §1

Experiment [20] has as its target T9, human plasma kallikrein (PK). The description is as above. How it is done:
as §1

The target of experiment [21] is T3, human kallikrein 2 (hK2). Described as above. On the procedure:
as §1

T4 sequence (P17538 19-263): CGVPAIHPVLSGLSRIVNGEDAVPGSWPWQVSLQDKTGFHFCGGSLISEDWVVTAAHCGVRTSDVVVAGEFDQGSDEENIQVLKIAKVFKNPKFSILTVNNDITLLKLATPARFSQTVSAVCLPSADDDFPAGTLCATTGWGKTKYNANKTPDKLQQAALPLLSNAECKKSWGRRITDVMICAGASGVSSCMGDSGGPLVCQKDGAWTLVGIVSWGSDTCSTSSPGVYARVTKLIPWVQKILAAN
T9 sequence (P03952 20-638 limits assumed): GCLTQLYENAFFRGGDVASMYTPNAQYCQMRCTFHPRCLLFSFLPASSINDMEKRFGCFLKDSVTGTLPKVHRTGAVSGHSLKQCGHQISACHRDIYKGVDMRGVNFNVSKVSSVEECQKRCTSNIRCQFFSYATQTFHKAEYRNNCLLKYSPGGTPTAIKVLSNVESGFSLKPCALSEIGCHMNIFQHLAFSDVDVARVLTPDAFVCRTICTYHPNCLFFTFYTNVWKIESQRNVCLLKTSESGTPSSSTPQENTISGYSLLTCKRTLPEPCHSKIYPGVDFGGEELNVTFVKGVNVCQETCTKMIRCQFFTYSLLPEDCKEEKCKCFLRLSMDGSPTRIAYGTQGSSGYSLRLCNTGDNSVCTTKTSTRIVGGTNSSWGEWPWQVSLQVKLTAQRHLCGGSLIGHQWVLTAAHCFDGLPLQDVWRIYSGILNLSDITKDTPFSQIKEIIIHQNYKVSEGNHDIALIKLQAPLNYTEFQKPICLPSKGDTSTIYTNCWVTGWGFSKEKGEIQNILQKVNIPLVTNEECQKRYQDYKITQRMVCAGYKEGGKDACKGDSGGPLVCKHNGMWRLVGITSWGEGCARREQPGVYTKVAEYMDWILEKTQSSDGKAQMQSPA

B1: rACTWT (recombinant wild type alpha-1-antichymotrypsin) (other, human)
chain: HHHHHHHPNSPLDEENLTQENQDRGTHVDLGLASANVDFAFSLYKQLVLKAPDKNVIFSPLSISTALAFLSLGAHNTTLTEILKGLKFNLTETSEAEIHQSFQHLLRTLNQSSDELQLSMGNAMFVKEQLSLLDRFTEDAKRLYGSEAFATDFQDSAAAKKLINDYVKNGTRGKITDLIKDLDSQTMMVLVNYIFFKAKWEMPFDPQDTHQSRFYLSKKKWVMVPMMSLHHLTIPYFRDEELSCTVVELKYTGNASALFILPDQDKMEEVEAMLLPETLKRWRDSLEFREIGELYLPKFSISRDYNLNDILLQLGIEEAFTSKADLSGITGARNLAVSQVVHKAVLDVFEEGTEASAATAVKITLLSALVETRTIVRFNRPFLMIIVPTDTQNIFFMSKVTNPKQA
notes: also called wild type rACT; wild type ACT
In the case of B1, the Percentage inhibition in [1] stood at 0%; with thrombin [2], 18%; with human kallikrein 5 (hK5) it was 7%; with human kallikrein 2 (hK2) [3] it was 0%; in experiment [4], 100%; with human kallikrein 8 (hK8) it was 0%. Besides, the Percentage inhibition in the experiment with human kallikrein 6 (hK6) amounted to 24%; in experiment [5], 100%. For the same molecule, the INHIBITION % turned out to be 0% with human kallikrein 2 (hK2) [6]; 100% in [7]; 80% in [8]; 0% with human kallikrein hK1; 0% in experiment [9]. Moreover, the “% Inhibition” value is 18% in the experiment with thrombin [10], 100% in [11] and 0% in [12]. Further, the “SI (stoichiometry of inhibition)” value in [13] was found to be 2.

B2: rACT6.1 (other)
chain: MRGSHHHHHHSRHPNSPLDEENLTQENQDRGTHVDLGLASANVDFAFSLYKQLVLKAPDKNVIFSPLSISTALAFLSLGAHNTTLTEILKGLKFNLTETSEAEIHQSFQHLLRTLNQSSDELQLSMGNAMFVKEQLSLLDRFTEDAKRLYGSEAFATDFQDSAAAKKLINDYVKNGTRGKITDLIKDLDSQTMMVLVNYIFFKAKWEMPFDPQDTHQSRFYLSKKKWVMVPMMSLHHLTIPYFRDEELSCTVVELKYTGNASALFILPDQDKMEEVEAMLLPETLKRWRDSLEFREIGELYLPKFSISRDYNLNDILLQLGIEEAFTSKADLSGITGARNLAVSQVVHKAVLDVFEEGTEASAATAVKIMTRSNAVETRTIVRFNRPFLMIIVPTDTQNIFFMSKVTNPKQA
notes: recombinant ACT variant, RSL substrate peptide MTRSN; N-terminal His tag, E. coli TG1; also called MD61; MD 61
As for B2, the INHIBITION % in experiment [14] came to 60%; in [15], 100%; in the experiment with human kallikrein 2 (hK2) [6], 100%; in the experiment with human kallikrein hK1 it was 0%; in experiment [9] it was 0%. Further, the kon is 1190 M⁻¹ s⁻¹ in [16], 8020 M⁻¹ s⁻¹ in experiment [17] and 3440 M⁻¹ s⁻¹ in the experiment with human kallikrein 2 (hK2) [18]. Moreover, the “SI (stoichiometry of inhibition)” value was 159 in experiment [19], 16 in [20] and 19 in the experiment with human kallikrein 2 (hK2) [21].
